Consider one molecule from patent CN114349861A (HUAOTSU BALL; JIANGSU INST OF TARGET BIOMEDICINE CO LTD, dated 2022).

In this assay the target is T1, 人PD1蛋白 (human, UniProt Q15116 25-170).
T1 construct: extracellular domain; also called PD1(人); PD1(胞外段)蛋白
The assay is described as follows: non-competitive ELISA at three PD1 coating concentrations; Beatty formula, mean of three K values. (In general: An ELISA detects its analyte on a solid surface through an enzyme-linked reagent.)

T1 sequence (Q15116 25-170): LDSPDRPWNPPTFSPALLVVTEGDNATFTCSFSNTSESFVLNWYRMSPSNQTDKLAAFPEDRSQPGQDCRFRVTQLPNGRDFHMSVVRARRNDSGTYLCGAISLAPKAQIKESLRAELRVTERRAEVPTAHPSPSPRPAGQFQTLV

B1: 抗PD1-VHH1 (VHH)
VHH: QVQLVESGGGSVQAGGSLRLSCAASGYASSSYSMGWFRQAPGKEREAVAGVNRDGSTRYADSVKGRFTISKDNAKNTLYLQMNSLKPEDTAMYYCAADRGWLPRRPDYWGQGTQVTVSS
notes: Camel (dromedary) VHH selected from a T7 phage library; The soluble protein was expressed from pET32a in E. coli BL21(DE3) and purified on Ni-IDA; The specificity ELISA detected it with an anti-HA antibody; also called 抗PD1Nb1; antiPD1Nb
Regarding B1, the Ka was determined as 8.2e+06 M⁻¹.
